2 substances from PMC12697862 can be followed below.

For the test, the target named is IP3R1 channel fragment E. In words: co-IP (IP: Flag, immunoblot for Myc) with band quantification. The following applies: LV-GRP75-Flag(mutant) with IP3R1E-Myc; n = 5; means ± SEM; read off a plot. On the technique in general: In western blotting, separated proteins are transferred to a membrane and probed.

Substance “GRP75, transfected for co-IP (from UniProt P38647) K567Q; K612Q” came in with a response (relative level of Myc/Flag (IP group)) of 0.47.

In turn, “GRP75, transfected for co-IP (from UniProt P38647) K567R; K612R” yielded a response (relative level of Myc/Flag (IP group)) of 1.
